Target: T1, phosphorylated ArnB (ArnB~P), phosphorylated by the kinase ArnC (Sulfolobus acidocaldarius, UniProt Q4J9H3 2-380, phosphothreonine at T353, T363 and T375 (almost complete within the first 5 min with ArnC); phosphothreonine at T322 and T335 only after 15 min)
T1 construct: ArnB of Sulfolobus acidocaldarius, Saci_1211; also called tagged ArnB; source: E. coli BL21(DE3) Rosetta; phosphorylated by ArnC in the mixed lysate (ATP, MnCl2, 55 °C, 5-60 min); in lysate for the pull-downs; purified (Ni-NTA, SEC) for HDX-MS; not shown: His6, C-terminal, kept
T1 sequence: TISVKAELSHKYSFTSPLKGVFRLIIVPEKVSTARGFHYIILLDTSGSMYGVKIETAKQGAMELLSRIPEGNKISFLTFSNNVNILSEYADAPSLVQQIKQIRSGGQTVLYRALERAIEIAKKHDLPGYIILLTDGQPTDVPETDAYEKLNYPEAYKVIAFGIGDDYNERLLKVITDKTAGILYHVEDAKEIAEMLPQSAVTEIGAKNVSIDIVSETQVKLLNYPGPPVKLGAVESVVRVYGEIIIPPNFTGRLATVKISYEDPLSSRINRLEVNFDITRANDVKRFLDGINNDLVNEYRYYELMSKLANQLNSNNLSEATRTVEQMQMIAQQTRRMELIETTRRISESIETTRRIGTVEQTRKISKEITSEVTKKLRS
Assay: HDX-MS; ArnA, ArnB, ArnB~P and ArnA/ArnB~P (isolated by Ni-NTA via the His6 tag of ArnB, then SEC); 50 μM stocks in 20 mM Tris-Cl pH 8.0, 150 mM NaCl; 25 °C; 10-10,000 s
Conditions: both partners purified

B1: ArnA (Saci_1210) (natural protein, Sulfolobus acidocaldarius)
chain: TWKCNLCGYENDDDALFCIKCGAQKSSEAQQLPQQQPSEPQAQGVVTQQQVVTNPPVQAQVATPQQPAQQPVLPQPEPAQPQPVSSTPAPQQASQPTNRYYIYFIQTPNENLVNKKVLLNFDLFPSVSMGRSPENIVIVPDSEVSRKHAVIYLDNSELYIEDLNSTNGTYVYDGKQFTPIKGKQKIEPNSIIKLGNQTIVRILKE
notes: ArnA of Sulfolobus acidocaldarius, Saci_1210; N-terminal zinc-finger (ZnF) domain, disordered linker (S28-N99) and C-terminal FHA domain; In the crystal (PDB 8S05) only the ZnF domain (P16-K42) is defined by density; also called StrepII-tagged ArnA; source: E. coli BL21(DE3) Rosetta; purified (heat treatment, Ni-NTA, SEC) for crystals, SAXS and HDX-MS; co-expressed with His6-ArnB, in lysate, for …
- binding result: binds
